From patent US8551717B2, “Method for determining sumoylation” (Medizinische Hochschule Hannover, priority 2008, dated 2013)
Values belong to the substance of their own block, whether it stands above or below them.

What was measured:
p53-U = target: T1, p53-U (Homo sapiens, UniProt P04637+P63279); assay: Trans-SUMOylation by p53-U; type: cell-based; details: western blot
T1 construct: expressed in transfected cells; host or cells: HEK293

JUN-U = target: T2, JUN-U (Homo sapiens, UniProt P05412+P63279); assay: Trans-SUMOylation by JUN-U; type: cell-based; details: protein 2 construct coexpressed with JUN-U and EGFP-SUMO1 in HEK293, western blot
T2 construct: expressed in transfected cells; host or cells: HEK293

U-MK2 = target: T3, U-MK2 (Homo sapiens, UniProt P49137+P63279); assay: Trans-SUMOylation by U-MK2; type: cell-based; details: protein 2 construct coexpressed with U-MK2 and EGFP-SUMO1 in HEK293
T3 construct: expressed in transfected cells; host or cells: HEK293

U-p38α = target: T4, U-p38α (Homo sapiens, UniProt P63279+Q16539); assay: Trans-SUMOylation by U-p38α; type: cell-based; details: protein 2 construct coexpressed with U-p38α and EGFP-SUMO1 in HEK293
T4 construct: expressed in transfected cells; host or cells: HEK293

MK2-U = target: T5, MK2-U (Homo sapiens, UniProt P49137+P63279); assay: Trans-SUMOylation by MK2-U; type: cell-based; details: protein 2 construct coexpressed with MK2-U and EGFP-SUMO1 in HEK293
T5 construct: expressed in transfected cells; host or cells: HEK293

U-MK5 = target: T6, U-MK5 (Homo sapiens, UniProt P63279+Q8IW41); assay: Trans-SUMOylation by U-MK5; type: cell-based; parameters: key: (++), strong TransSUMOylation; (+), TransSUMOylation; (+/−) weak TransSUMOylation; (−) no detectable TransSUMOylation; details: protein 2 construct coexpressed with U-MK5 and EGFP-SUMO1 in HEK293; western blot; Table 2
T6 construct: expressed in transfected cells; host or cells: HEK293
From the text: (§1) To identify new SUMOylation substrates and to study the function of SUMOylation the Ubc9/substrate dimerisation-dependent SUMOylation system (USDDS) was developed which consists of fusions of the SUMOylation substrate and of the SUMO-conjugating enzyme Ubc9 to the chemically activatable heterodimerisation domains FKBP and FRB, respectively, as shown in FIG. 2. When the substrate protein fused to FKBP is coexpressed with Ubc9-FRB, treatment of HEK293 cells with the rapamycin-related dimerizer AP21967 induces SUMOylation of the substrate protein fused to FKBP at its specific SUMOylation site. […] Dependent on an EcoRl site in the coding sequence, seven C-terminal amino acids of the human STAT1a in the STAT1-FKBP/FRB fusion proteins are missing. For the SUMOylation analysis HEK293 (human embryonic kidney cells) cells have been used. HEK293 cells were cultured in Dulbecco's modified Eagle's medium with high glucose, complemented with 10% fetal calf serum, 2 mM L-glutamine, 100 U/ml penicillin and […] streptomycin. We performed transfection of HEK293 cells using the polyethylenimine transfection reagent. HEK293 cells of a fresh confluent 10 cm plate were transferred on a 12-well plate. After 12-24 h incubation about 70% cell confluence is reached. For each well 45 μl of serum/antibiotic free DMEM medium is mixed with 750 ng of the transfection-purity expression vector DNA (all together 47 μl) and vortexed. Then, 3 μl of vortexed polyethylenimin stock solution (1 mg/ml) is added and the mixture is vortexed. After incubation at room temperature for 10 min 450 μl fresh DMEM with antibiotics is added to the mixture and vortexed. The medium on the cells was then completely removed and immediately, the 500 μl transfection mix was added carefully to each well. The 12 well plate was rocked to ensure a proper distribution of the DNA/transfection reagent complex. After an incubation of the cells for 24 h at a 37° C. in a humidified CO2-incubator (5%) the cells were lysed in 150 μl Laemmli (2×) gel loading buffer (160 mM Tris-HCL, pH 6.8, 4% (w/v) sodium dodecyl sulphate (SDS), 20% (v/v) glycerol, 0.5% β-mercaptoethanol (v/v), 0.008% (w/v) bromophenol blue) and incubated for 10 min at 95° C. For western blot analysis the proteins were separated by SDS-PAGE, blotted on a PVDF membrane and developed with specific primary antibodies (α-Ubc9 (H81, Santa Cruz), α-pY701-STAT1 (Tyr701, Cell Signaling), α-STAT1 (Cell Signaling), α-p53 (1C12, Cell Signaling), α-SUMO1 (Cell Signaling), a horseradish peroxidase (HRP)-conjugated secondary antibody (different companies), the ECL+ (Amersham) or Immobilon™ Western (Millipore) and the LAS-3000 imaging system (Fuji).
As shown above, the SUMOylation of a protein of interest can be induced by the heterodimerisation with a binding protein fused to Ubc9. To find out if Trans-SUMOylation is useful for the characterisation of common protein interactions, protein binding pairs well known from the literature or found in two hybrid screens. […] Therefore the protein pairs were coexpressed with EGFP-SUMO1 in HEK293 cells and after 24h the transfectants were lysed and the protein extracts were analyzed in western blots.
Protein-protein interactions described in the cited references were tested for Trans-SUMOylation. Each specific protein-protein interaction was tested by coexpression of different combinations of protein 1 fused to Ubc9 (U) with protein 2 mostly fused two a tag (HA, FLAG, Myc, GST, ST). (++), strong TransSUMOylation; (+), TransSUMOylation; (+/−) weak TransSUMOylation; (−) no detectable TransSUMOylation; (MEKK1ca) the activated MAP3 kinase MEKK1, that can enhance protein SUMOylation, was coexpressed.
Protein-protein interaction of each pair of protein 1/protein 2 was tested by coexpression of different combinations of a protein 1 fused to Ubc9 (U) with protein 2 mostly fused two a Tag (HA, FLAG, GST, ST). […]

U-CSNK2B = target: T7, U-CSNK2B (Homo sapiens, UniProt P63279+P67870); assay: Trans-SUMOylation by U-CSNK2B; type: cell-based; parameters: key: (++), strong TransSUMOylation; (+), TransSUMOylation; (+/−) weak TransSUMOylation; (−) no detectable TransSUMOylation; details: protein 2 construct coexpressed with U-CSNK2B and EGFP-SUMO1 in HEK293; western blot; Table 2
T7 construct: expressed in transfected cells; host or cells: HEK293
From the text: as §1, with “The 12 well plate was rocked to ensure a proper distribution of the DNA/transfection reagent complex. After an incubation of the cells for 24 h at a 37° C. in a humidified CO2-incubator (5%) the cells were lysed in 150 μl Laemmli (2×) gel loading buffer (160 mM Tris-HCL, pH 6.8, 4% (w/v) sodium dodecyl sulphate (SDS), 20% (v/v) glycerol, 0.5% β-mercaptoethanol (v/v), 0.008% (w/v) bromophenol blue) and incubated for 10 min at 95° C. For western blot analysis the proteins were separated by SDS-PAGE, blotted on a PVDF membrane and developed with specific primary antibodies (α-Ubc9 (H81, Santa Cruz), α-pY701-STAT1 (Tyr701, Cell Signaling), α-STAT1 (Cell Signaling), α-p53 (1C12, Cell Signaling), α-SUMO1 (Cell Signaling), a horseradish peroxidase (HRP)-conjugated secondary antibody (different companies), the ECL+ (Amersham) or Immobilon™ Western (Millipore) and the LAS-3000 imaging system (Fuji).” left out
As shown above, the SUMOylation of a protein of interest can be induced by the heterodimerisation with a binding protein fused to Ubc9. […] Therefore the protein pairs were coexpressed with EGFP-SUMO1 in HEK293 cells and after 24h the transfectants were lysed and the protein extracts were analyzed in western blots. […]

STAT1-U = target: T8, STAT1-U (Homo sapiens, UniProt P42224+P63279); assay: Trans-SUMOylation by STAT1-U; type: cell-based; details: protein 2 construct coexpressed with STAT1-U and EGFP-SUMO1 in HEK293; western blot; Table 1
T8 construct: expressed in transfected cells; host or cells: HEK293

STAT1 = assay: Interplay of STAT1 Y701 phosphorylation and K703 SUMOylation by USDDS, western blot; type: cell-based, human; details: HEK293, USDDS with AP21967 1 μM and interferon-β, any stimulation scenario
CSNK2B-U = target: T9, CSNK2B-U (Homo sapiens, UniProt P63279+P67870); assay: Trans-SUMOylation by CSNK2B-U; type: cell-based; details: protein 2 construct coexpressed with CSNK2B-U and EGFP-SUMO1 in HEK293; western blot; Table 1
T9 construct: expressed in transfected cells; host or cells: HEK293

[1] = protein 2 construct coexpressed with P53-U (p53-U) and EGFP-SUMO1 in HEK293, Table 1

T2 sequence (P05412+P63279 fused): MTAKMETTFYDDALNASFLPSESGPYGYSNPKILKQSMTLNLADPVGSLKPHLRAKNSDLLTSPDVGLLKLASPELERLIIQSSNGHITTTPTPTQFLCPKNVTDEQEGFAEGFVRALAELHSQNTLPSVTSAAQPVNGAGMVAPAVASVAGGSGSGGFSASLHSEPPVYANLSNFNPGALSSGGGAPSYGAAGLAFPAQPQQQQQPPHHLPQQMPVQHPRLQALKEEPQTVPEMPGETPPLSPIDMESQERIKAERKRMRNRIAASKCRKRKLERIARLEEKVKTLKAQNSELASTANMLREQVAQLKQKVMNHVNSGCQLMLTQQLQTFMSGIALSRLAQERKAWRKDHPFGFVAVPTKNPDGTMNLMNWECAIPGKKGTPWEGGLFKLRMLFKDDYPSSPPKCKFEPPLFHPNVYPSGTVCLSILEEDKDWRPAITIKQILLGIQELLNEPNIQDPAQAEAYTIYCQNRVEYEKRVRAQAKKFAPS
T4 sequence (P63279+Q16539 fused): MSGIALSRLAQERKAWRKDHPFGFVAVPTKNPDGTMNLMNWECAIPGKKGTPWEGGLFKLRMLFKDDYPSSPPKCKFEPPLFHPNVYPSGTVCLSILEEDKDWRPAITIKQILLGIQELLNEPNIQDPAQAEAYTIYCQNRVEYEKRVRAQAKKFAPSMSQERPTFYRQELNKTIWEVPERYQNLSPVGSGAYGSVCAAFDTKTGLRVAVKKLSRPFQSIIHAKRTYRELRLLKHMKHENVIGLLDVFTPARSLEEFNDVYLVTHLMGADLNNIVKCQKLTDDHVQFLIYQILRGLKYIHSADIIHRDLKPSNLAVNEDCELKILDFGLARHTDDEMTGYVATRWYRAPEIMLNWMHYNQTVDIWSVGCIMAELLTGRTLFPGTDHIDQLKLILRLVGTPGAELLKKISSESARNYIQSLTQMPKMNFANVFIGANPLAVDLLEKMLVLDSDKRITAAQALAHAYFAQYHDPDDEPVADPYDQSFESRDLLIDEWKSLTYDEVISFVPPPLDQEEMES
T5 sequence (P49137+P63279 fused): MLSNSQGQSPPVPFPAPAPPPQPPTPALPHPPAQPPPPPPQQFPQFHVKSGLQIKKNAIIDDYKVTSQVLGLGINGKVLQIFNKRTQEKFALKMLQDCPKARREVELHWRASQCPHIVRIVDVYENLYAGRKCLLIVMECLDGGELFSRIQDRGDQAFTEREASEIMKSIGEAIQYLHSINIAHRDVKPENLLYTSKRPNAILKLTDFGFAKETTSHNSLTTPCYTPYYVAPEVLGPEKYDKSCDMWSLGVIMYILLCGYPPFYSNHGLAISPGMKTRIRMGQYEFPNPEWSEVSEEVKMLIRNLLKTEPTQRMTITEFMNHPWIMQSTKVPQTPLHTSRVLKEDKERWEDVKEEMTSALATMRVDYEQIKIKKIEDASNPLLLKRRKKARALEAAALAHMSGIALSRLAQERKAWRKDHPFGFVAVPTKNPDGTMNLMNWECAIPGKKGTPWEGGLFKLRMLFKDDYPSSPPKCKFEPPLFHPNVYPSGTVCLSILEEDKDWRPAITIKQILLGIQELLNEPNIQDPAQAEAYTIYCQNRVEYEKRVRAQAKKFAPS
T3 sequence (P63279+P49137 fused): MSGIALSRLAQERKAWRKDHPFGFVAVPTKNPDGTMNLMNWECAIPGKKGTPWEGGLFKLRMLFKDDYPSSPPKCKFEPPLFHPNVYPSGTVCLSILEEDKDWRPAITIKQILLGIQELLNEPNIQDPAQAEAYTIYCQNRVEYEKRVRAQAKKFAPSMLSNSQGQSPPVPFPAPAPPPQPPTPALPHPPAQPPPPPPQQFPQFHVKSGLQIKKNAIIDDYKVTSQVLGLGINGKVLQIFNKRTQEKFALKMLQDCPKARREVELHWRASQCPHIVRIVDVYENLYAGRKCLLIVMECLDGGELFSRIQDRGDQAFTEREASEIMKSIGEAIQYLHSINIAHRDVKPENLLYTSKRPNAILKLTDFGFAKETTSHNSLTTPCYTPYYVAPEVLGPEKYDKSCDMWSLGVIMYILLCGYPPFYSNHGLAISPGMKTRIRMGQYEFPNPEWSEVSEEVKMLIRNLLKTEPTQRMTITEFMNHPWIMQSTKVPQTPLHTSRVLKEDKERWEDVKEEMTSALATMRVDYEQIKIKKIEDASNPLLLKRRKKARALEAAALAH
T9 sequence (P67870+P63279 fused): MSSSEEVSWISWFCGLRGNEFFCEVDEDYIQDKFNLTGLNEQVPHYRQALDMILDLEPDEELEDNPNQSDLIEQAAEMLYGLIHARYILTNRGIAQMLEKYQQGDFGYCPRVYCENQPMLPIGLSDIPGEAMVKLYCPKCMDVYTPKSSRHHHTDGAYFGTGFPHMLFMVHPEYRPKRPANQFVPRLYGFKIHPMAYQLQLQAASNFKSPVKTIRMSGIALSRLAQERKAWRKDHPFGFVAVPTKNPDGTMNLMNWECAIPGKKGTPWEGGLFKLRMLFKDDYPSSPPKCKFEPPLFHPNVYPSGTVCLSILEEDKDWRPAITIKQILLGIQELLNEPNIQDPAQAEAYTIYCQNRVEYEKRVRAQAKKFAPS
T6 sequence (P63279+Q8IW41 fused): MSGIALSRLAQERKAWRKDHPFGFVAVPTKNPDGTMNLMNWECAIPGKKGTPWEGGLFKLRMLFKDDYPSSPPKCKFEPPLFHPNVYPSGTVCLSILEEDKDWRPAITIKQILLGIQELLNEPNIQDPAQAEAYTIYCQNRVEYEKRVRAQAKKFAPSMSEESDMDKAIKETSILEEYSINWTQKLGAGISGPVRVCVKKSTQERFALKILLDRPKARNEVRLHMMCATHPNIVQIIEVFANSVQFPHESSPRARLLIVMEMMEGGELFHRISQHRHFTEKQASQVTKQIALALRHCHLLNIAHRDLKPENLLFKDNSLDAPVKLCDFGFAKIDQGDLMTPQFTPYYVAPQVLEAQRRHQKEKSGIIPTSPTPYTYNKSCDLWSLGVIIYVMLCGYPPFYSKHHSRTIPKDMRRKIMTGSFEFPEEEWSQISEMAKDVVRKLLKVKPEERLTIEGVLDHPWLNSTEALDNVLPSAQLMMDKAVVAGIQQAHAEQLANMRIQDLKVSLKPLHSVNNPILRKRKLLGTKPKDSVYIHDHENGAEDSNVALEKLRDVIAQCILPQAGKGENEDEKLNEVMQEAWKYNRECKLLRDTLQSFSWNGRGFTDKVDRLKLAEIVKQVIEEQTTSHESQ
T7 sequence (P63279+P67870 fused): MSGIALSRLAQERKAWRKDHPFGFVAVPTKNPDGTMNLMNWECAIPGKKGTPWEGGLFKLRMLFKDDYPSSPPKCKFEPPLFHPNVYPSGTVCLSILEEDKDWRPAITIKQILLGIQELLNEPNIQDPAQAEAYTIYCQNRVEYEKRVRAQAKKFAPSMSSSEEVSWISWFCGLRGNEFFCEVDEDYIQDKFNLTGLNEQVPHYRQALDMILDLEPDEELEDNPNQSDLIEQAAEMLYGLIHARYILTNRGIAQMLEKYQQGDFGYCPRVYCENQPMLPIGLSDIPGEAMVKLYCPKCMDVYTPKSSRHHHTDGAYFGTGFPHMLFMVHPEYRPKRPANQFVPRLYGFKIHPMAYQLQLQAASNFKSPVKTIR
T8 sequence (P42224+P63279 fused): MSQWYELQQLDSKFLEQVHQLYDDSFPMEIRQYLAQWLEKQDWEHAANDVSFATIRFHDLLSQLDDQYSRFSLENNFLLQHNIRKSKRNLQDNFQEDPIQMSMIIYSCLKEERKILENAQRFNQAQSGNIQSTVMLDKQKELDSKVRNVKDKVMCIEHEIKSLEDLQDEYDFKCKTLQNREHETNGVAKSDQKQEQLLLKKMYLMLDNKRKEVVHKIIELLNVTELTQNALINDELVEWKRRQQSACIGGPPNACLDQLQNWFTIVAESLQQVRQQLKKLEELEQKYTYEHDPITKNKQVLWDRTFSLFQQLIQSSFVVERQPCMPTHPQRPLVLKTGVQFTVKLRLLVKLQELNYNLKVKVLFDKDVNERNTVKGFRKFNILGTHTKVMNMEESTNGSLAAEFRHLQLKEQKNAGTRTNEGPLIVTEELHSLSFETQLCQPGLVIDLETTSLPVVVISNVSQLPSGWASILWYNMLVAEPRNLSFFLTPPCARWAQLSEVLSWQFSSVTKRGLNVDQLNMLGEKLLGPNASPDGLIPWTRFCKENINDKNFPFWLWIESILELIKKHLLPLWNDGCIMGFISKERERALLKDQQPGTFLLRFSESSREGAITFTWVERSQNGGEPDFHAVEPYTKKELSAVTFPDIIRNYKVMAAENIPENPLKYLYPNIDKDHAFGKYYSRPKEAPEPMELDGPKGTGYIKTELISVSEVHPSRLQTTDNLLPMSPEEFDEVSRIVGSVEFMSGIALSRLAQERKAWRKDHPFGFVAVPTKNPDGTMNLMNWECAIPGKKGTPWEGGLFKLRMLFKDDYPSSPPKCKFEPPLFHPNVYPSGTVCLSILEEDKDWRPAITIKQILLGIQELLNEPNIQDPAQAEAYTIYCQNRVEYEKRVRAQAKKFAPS

Substance: HA-ERK2: ERK2 fused to HA tag
Trans-SUMOylation (p53-U; [1]): +
Trans-SUMOylation (JUN-U; Table 2): −
Trans-SUMOylation (U-MK2; western blot, Table 1): +
Trans-SUMOylation (U-p38α; western blot, Table 1): +

Substance: HA-HSP27: HSP27 fused to HA tag
Trans-SUMOylation (U-MK2; western blot, Table 1): −
Trans-SUMOylation (MK2-U; western blot, Table 1): −

Substance: Myc-MK2: MK2 fused to Myc tag
Trans-SUMOylation (p53-U; protein 2 construct coexpressed with p53-U and EGFP-SUMO1 in HEK293, Table 2): −
Trans-SUMOylation (U-MK5): +
Trans-SUMOylation (JUN-U; Table 2): −
Trans-SUMOylation (U-MK2; MEKK1 coexpressed, Table 2): + (MEKK1)
Trans-SUMOylation (U-MK2; western blot, Table 2): −
Trans-SUMOylation (U-CSNK2B): (+/−)
Trans-SUMOylation (U-p38α; MEKK1ca (Table 1B: MEKK1) coexpressed, Table 1): ++ (MEKK1ca)
Trans-SUMOylation (U-p38α; western blot, Table 1): +
Trans-SUMOylation (MK2-U; MEKK1 coexpressed, Table 2): + (MEKK1)
Trans-SUMOylation (MK2-U; western blot, Table 2): +

Substance: p53K386R-ST(377-389): p53K386R fused to SUMOylation site tag 377-389
Trans-SUMOylation (CSNK2B-U): +
Trans-SUMOylation (U-MK2; western blot, Table 2): −

More lines, main results first:

Trans-SUMOylation (p53-U; [1]): −
Trans-SUMOylation (U-MK5): −
Trans-SUMOylation (JUN-U; Table 1): −
Trans-SUMOylation (U-MK2; western blot, Table 2): −
Trans-SUMOylation (U-p38α; western blot, Table 2): −
Substance: HA-JNK2: JNK2 fused to HA tag

Trans-SUMOylation (JUN-U; Table 1): +
Trans-SUMOylation (MK2-U; western blot, Table 2): (+/−)
Substance: HA-JUN: JUN fused to HA tag

Trans-SUMOylation (STAT1-U): −
Trans-SUMOylation (MK2-U; western blot, Table 2): −
Substance: STAT1-FKBP: human STAT1a fused to FKBP heterodimerisation domain
double modification of STAT1 by SUMOylation and Y701 phosphorylation (STAT1): no double modification

Trans-SUMOylation (CSNK2B-U): +
Trans-SUMOylation (U-MK2; western blot, Table 2): −
Substance: p53K386R-ST(377-391): p53K386R fused to SUMOylation site tag 377-391
